Literature values, collected in publication PMC5437010.

Molecular target: factor XIa (Homo sapiens) (UniProt P03951)
UniProt P03951, sequence (P03951 388-625): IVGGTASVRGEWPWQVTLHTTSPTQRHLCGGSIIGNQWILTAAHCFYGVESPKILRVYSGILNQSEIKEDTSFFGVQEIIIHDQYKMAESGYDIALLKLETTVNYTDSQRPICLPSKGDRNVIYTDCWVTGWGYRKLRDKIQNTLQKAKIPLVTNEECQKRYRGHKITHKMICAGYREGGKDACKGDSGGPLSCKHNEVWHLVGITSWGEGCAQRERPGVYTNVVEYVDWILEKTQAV

For KPI KPI (from UniProt P05067), the Ki is given as 400 pM.
